First the molecules themselves.
B1: Formin-like protein 3 (Mus musculus), Q6ZPF4-1 (parent)
chain: MGNLESTDGGPGEPPSVPLLLPPGKTPMPEPCELEERFALVLSSMNLPPDKARLLRQYDNEKKWDLICDQERFQVKNPPHTYIQKLQSFLDPNVTRKKFRRRVQESTKVLRELEISLRTNHIGWVREFLNDENKGLDVLVDYLSFAQCSVMFDFEGLESGDDGAFDKLRSWSRSIEDLQPPNALSAPFTNSLARSARQSVLRYSTLPGRRALKNSRLVSQKDDVHVCILCLRAIMNYQYGFNLVMSHPHAVNEIALSLNNKNPRTKALVLELLAAVCLVRGGHEIILAAFDNFKEVCKELHRFEKLMEYFRNEDSNIDFMVACMQFINIVVHSVEDMNFRVHLQYEFTKLGLEEFLQKSRHTESEKLQVQIQAYLDNVFDVGGLLEDAETKNVALEKVEELEEHVSHLTEKLLDLENENMMRVAELEKQLLQREKELESIKETYENTSNQVHTLRRLIKEKEEAFQRRCHLEPSARGLESMGGEALARVGPTELTEGIPPSDLDLLAPAPPTEETLPLPPPPAPPLPPPPPPLPDKCPPAPPLPGAAPSVVLTVGLSAIRIKKPIKTKFRLPVFNWTALKPNQINGTVFSELDDEKILEDLDLDRFEELFKTKAQGPALDLICSKNKTAQKAASKVTLLEANRAKNLAITLRKAGRSAEEICRAIHTFDLQTLPVDFVECLMRFLPTEAEVKLLRQYERERQPLEELAAEDRFMLLFSKVERLTQRMAGMAFLGNFQDNLQMLTPQLNAIIAASASVKSSQKLKQMLEIILALGNYMNSSKRGAVYGFKLQSLDLLLDTKSTDRKMTLLHFIALTVKEKYPELANFWQELHFVEKAAAVSLENVLLDVKELGRGMELIRRECSIHDNSVLRNFLSTNEGKLDKLQRDAKTAEEAYNAVVRYFGESPKTTPPSVFFPVFVRFIRSYKEAEQENEARKKQEEVMREKQLAQEAKKLDAKTPSQRNKWQQQELIAELRRRQAKEHRPVYEGKDGTIEDIITVLKSVPFTARTAKRGSRFFCDAAHHDESNC

Variants of B1 are the subject of the assay. Conditions: with acts_rabit ACTA1, P68135.
For I649A, the “effect of a mutation on the interaction” value is given as “decreasing interaction strength”.

The values are drawn from IntAct's records for PubMed 23222643.
